1 substance from patent US20240287186A1 can be followed below.

The test concerns the target CD3 (target of Table E-1) (UniProt P07766). The test can be described thus: Biacore (SPR; format not stated). For orientation: SPR reads the build-up and loss of mass on a sensor chip optically.

For orientation: Kd means the equilibrium constant for the complex coming apart. Read a high Kd as a looser complex. The substance Anti-CD3 Fab OKT3 yielded a Kd of 9.62 nM.
